# Measurements reported in the supplement of paper PMC9112550, “Optimization of the antimicrobial peptide Bac7 by deep mutational scanning” (BMC Biology, 2022).
# System: Escherichia coli TOP10
# Test: shrunken log2 fold change of peptide-encoding DNA abundance (4.5 h post-induction vs induction); higher = less antimicrobial activity (less host growth inhibition)
# Conditions: time post-induction: 4.5 h; library: site-saturation at positions 5, 18, 19, 20
# 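Also: peptides expressed intracellularly from a pBAD plasmid library in pooled LB shake-flask culture, induced with 0.3% L-arabinose, DNA abundance read by NGS, three biological replicates, DESeq2 with apeglm shrinkage.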
row,Sequence,shrunken log2 fold change
1,RRIRCRPPRLPRPRPRPNHEPRP,-0.15
2,RRIRWRPPRLPRPRPRPNYKPRP,-0.552
3,RRIRARPPRLPRPRPRPKRSPRP,0.427
4,RRIRERPPRLPRPRPRPKGAPRP,0.216
5,RRIRIRPPRLPRPRPRPQQWPRP,-0.421
6,RRIRSRPPRLPRPRPRPWKPPRP,-0.0117
7,RRIRCRPPRLPRPRPRPGDKPRP,-0.441
8,RRIRCRPPRLPRPRPRPVWCPRP,-0.269
9,RRIRIRPPRLPRPRPRPQYCPRP,-0.15
10,RRIRPRPPRLPRPRPRPDRIPRP,-0.15
11,RRIRFRPPRLPRPRPRPEYPPRP,-0.617
12,RRIRRRPPRLPRPRPRPLYTPRP,-0.132
13,RRIRCRPPRLPRPRPRPNGRPRP,0.0604
14,RRIRRRPPRLPRPRPRPFYVPRP,-0.0483
15,RRIRARPPRLPRPRPRPPANPRP,3.4
16,RRIRGRPPRLPRPRPRPNWAPRP,0.363
17,RRIRSRPPRLPRPRPRPIETPRP,-0.29
18,RRIRNRPPRLPRPRPRPPPFPRP,0.47
19,RRIRARPPRLPRPRPRPHMFPRP,0.0892
20,RRIRMRPPRLPRPRPRPWFQPRP,0.134

row,Sequence,shrunken log2 fold change
1,RRIRARPPRLPRPRPRPELEPRP,1.88
2,RRIRCRPPRLPRPRPRPWCGPRP,-0.288
3,RRIRVRPPRLPRPRPRPKIYPRP,-0.309
4,RRIRPRPPRLPRPRPRPTMNPRP,-0.0529
5,RRIRLRPPRLPRPRPRPWNPPRP,-0.059
6,RRIRARPPRLPRPRPRPCKAPRP,0.125
7,RRIRPRPPRLPRPRPRPFVPPRP,0.0581
8,RRIRSRPPRLPRPRPRPICSPRP,0.119
9,RRIRERPPRLPRPRPRPQMWPRP,-0.0958
10,RRIRKRPPRLPRPRPRPVWQPRP,0.184
11,RRIRYRPPRLPRPRPRPPCSPRP,-0.957
12,RRIRQRPPRLPRPRPRPARCPRP,0.174
13,RRIRVRPPRLPRPRPRPTWMPRP,0.0438
14,RRIRSRPPRLPRPRPRPGETPRP,0.488
15,RRIRERPPRLPRPRPRPIKKPRP,0.00021
16,RRIRFRPPRLPRPRPRPCMDPRP,-0.336
17,RRIRKRPPRLPRPRPRPSWEPRP,0.153
18,RRIRPRPPRLPRPRPRPLGEPRP,-0.155
19,RRIRYRPPRLPRPRPRPLWFPRP,-0.494
20,RRIRKRPPRLPRPRPRPFLGPRP,0.0561

row,Sequence,shrunken log2 fold change
1,RRIRCRPPRLPRPRPRPEQDPRP,-0.0796
2,RRIRYRPPRLPRPRPRPVVLPRP,-0.397
3,RRIRQRPPRLPRPRPRPQMYPRP,-0.0131
4,RRIRHRPPRLPRPRPRPRHFPRP,-0.0239
5,RRIRMRPPRLPRPRPRPSPTPRP,1.15
6,RRIRDRPPRLPRPRPRPFLIPRP,0.0926
7,RRIRNRPPRLPRPRPRPSDDPRP,-0.0915
8,RRIRHRPPRLPRPRPRPWHAPRP,-0.0793
9,RRIRMRPPRLPRPRPRPWKYPRP,-0.198
10,RRIRTRPPRLPRPRPRPVEMPRP,-0.162
11,RRIRRRPPRLPRPRPRPAEDPRP,0.987
12,RRIRLRPPRLPRPRPRPEFIPRP,0.0915
13,RRIRARPPRLPRPRPRPLVYPRP,-0.372
14,RRIRQRPPRLPRPRPRPNTEPRP,-0.0119
15,RRIRLRPPRLPRPRPRPLKKPRP,0.162
16,RRIRLRPPRLPRPRPRPLFIPRP,-0.539
17,RRIRSRPPRLPRPRPRPCHFPRP,-0.186
18,RRIRYRPPRLPRPRPRPGGPPRP,0.106
19,RRIRQRPPRLPRPRPRPDFQPRP,-0.0253
20,RRIRDRPPRLPRPRPRPWALPRP,-0.000578
